Experimental data taken from PMC9600270 (Cancers, 2022).

Key:
[1] = test system: Rh30 cells (cell surface nucleolin); assay: Lactoferrin competition of QD-F3 binding, Rh30; format: cell-based; details: 2 μM lactoferrin pretreatment 20 min, then 20 nM QD-F3 + 2 μM lactoferrin 1 h on ice, FACS
[2] = test system: RD cells (cell surface nucleolin); assay: Lactoferrin competition of QD-F3 binding, RD; format: cell-based; details: 2 μM lactoferrin pretreatment 20 min, then 20 nM QD-F3 + 2 μM lactoferrin 1 h on ice, FACS

B1: lactoferrin: human milk lactoferrin, high-affinity natural ligand of nucleolin (protein, UniProt P02788 20-710, looked up)
Lactotransferrin: GRRRSVQWCAVSQPEATKCFQWQRNMRKVRGPPVSCIKRDSPIQCIQAIAENRADAVTLDGGFIYEAGLAPYKLRPVAAEVYGTERQPRTHYYAVAVVKKGGSFQLNELQGLKSCHTGLRRTAGWNVPIGTLRPFLNWTGPPEPIEAAVARFFSASCVPGADKGQFPNLCRLCAGTGENKCAFSSQEPYFSYSGAFKCLRDGAGDVAFIRESTVFEDLSDEAERDEYELLCPDNTRKPVDKFKDCHLARVPSHAVVARSVNGKEDAIWNLLRQAQEKFGKDKSPKFQLFGSPSGQKDLLFKDSAIGFSRVPPRIDSGLYLGSGYFTAIQNLRKSEEEVAARRARVVWCAVGEQELRKCNQWSGLSEGSVTCSSASTTEDCIALVLKGEADAMSLDGGYVYTAGKCGLVPVLAENYKSQQSSDPDPNCVDRPVEGYLAVAVVRRSDTSLTWNSVKGKKSCHTAVDRTAGWNIPMGLLFNQTGSCKFDEYFSQSCAPGSDPRSNLCALCIGDEQGENKCVPNSNERYYGYTGAFRCLAENAGDVAFVKDVTVLQNTDGNNNEAWAKDLKLADFALLCLDGKRKPVTEARSCHLAMAPNHAVVSRMDKVERLKQVLLHQQAKFGRNGSDCPDKFCLFQSETKNLLFNDNTECLARLHGKTTYEKYLGPQYVAGITNLKKCSTSPLLEACEFLRK
QD-F3 binding upon co-incubation with excess lactoferrin [1]: clear decrease | QD-F3 binding upon co-incubation with excess lactoferrin [2]: clear decrease
